Data on two molecules can be found in article PMC6379669 (Nucleic Acids Research, 2018).

The target of the assay is full-length human RBBP4 (residues 1–425), recombinant (human, UniProt Q09028 1-425). As to the kind of experiment: ITC.
full-length human RBBP4 (residues 1–425), recombinant, sequence (Q09028 whole entry, the tested form may be a part): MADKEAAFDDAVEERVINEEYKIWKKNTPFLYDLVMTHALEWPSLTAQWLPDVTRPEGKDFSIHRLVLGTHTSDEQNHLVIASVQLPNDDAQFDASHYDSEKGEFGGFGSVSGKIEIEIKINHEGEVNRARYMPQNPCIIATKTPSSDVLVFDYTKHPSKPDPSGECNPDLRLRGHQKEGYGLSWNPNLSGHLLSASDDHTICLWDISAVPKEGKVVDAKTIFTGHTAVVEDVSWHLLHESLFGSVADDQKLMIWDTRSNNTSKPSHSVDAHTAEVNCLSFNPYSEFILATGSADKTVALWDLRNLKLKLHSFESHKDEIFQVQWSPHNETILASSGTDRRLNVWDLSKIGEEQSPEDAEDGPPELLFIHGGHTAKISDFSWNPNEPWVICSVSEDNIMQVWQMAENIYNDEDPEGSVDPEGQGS

As for MRSKARARKLAK [human PRDM16 peptide (residues 1–12)], the Kd turned out to be 3.15 µM and the “stoichiometry N” value amounted to 1.
Taken in the same sequence, the figures for MRSKGRARKLAT [human PRDM3 peptide (residues 1–12)] were 2.96 µM and 1.

By Kd is commonly meant the free concentration of one partner at which half of the binding sites on the other are occupied at equilibrium, for simple one-to-one binding. Broadly, the stoichiometry N is a count of units in the complex or per binding partner.
